Experimental data reported in patent US20130316374A1, “BREAST CANCER DIAGNOSTICS” (IMBA - INSTITUT FUR MOLEKULARE BIOTECHNOLOGIE GMBH, priority 2010, published 2013).

B1: RANKL: Receptor Activator of NF-κB Ligand; recombinant murine RANKL used for stimulation (protein, UniProt O35235 139-316, looked up)
Tumor necrosis factor ligand …: FSGAPAMMEGSWLDVAQRGKPEAQPFAHLTINAASIPSGSHKVTLSSWYHDRGWAKISNMTLSNGKLRVNQDGFYYLYANICFRHHETSGSVPTDYLQLMVYVVKTSIKIPSSHNLMKGGSTKNWSGNSEFHFYSINVGGFFKLRAGEEISIQVSNPSLLDPDQDATYFGAFKVQDID

Key:
NFκB pathway, CyclinD1 = assay: NFκB pathway activation and CyclinD1 expression in mammary epithelial cells after MPA; assay type: in vivo, mouse; conditions: three day MPA treatment
Text: a, Activation of the NFκB pathway and CyclinD1 expression by MPA. Nulliparous RANK^Δmam and littermate control females were s.c. implanted with slow-release MPA pellets or treated with sham surgery. a, In situ immunostaining to detect phosphorylated (P) IκBα in mammary epithelial cells of RANK^Δmam and littermate control females after 3d MPA treatment. b, Western blot analysis of CyclinD1 and RANKL in isolated mammary epithelial cells from RANK^Δmam and littermate control females after 3d MPA treatment. Recombinant, murine sRANKL protein is shown for molecular size comparison. β-actin is shown as a loading control.
RANKL-RANK signaling via IKKα-NFκB-CyclinD1 in mammary epithelial cells is illustrated in FIG. 11a. […] To directly show whether RANK mediates NFκB-CyclinD1 activation downstream of progestins in vivo, mice were challenged with MPA. […] The Id2 pathway is a second genetically confirmed down-stream pathway for RANKL/RANK in mammary epithelial cells^17. To extend these findings to human, human SKBR3 breast tumor cells were assayed. […] To further test the effects of RANKL stimulation the ability of these cells to grow in an anchorage-independent manner was assessed, which correlates well with tumorigenicity in vivo^18.

[1] = system: SKBR3 human breast cancer cells; assay: DNA damage responses (cell cycle arrest, apoptosis) in SKBR3 cells; assay type: cell-based; conditions: RANKL 1 μg/ml
Protocol: a, Western Blot analysis for γH2AX, phosphorylated (P) Chk1, total Chk1, p53 and β-actin in isolated primary mouse mammary gland epithelial cells in response to γ-irradiation (2 Gray) in the presence (1 μg/ml) or absence of RANKL stimulation. b,c, FACS analysis of propidium iodide (PI) stained b, mammary epithelial cells and c, SKBR3 human breast cancer cells after γ-irradiation (2 Gray) in the absence or presence (1 μg/ml) of RANKL. Data are representative of at least 3 experiments. Apoptotic cells with a DNA content <2n appear in the sub-G1 region. Percent of cells in sub-G1 (M1), G1-phase (M2), S/G2/M-phase (M3) as well as polyploid cells with a DNA content >4n are given for the indicated time points.
a,b, FACS analysis of a, mammary epithelial cells and b, SKBR3 human breast cancer cells incubated with the genotoxic agent doxorubicin (Dox, 1 μM) in the presence (1 μg/ml) or absence of RANKL. Data are representative of at least 3 experiments. Percent of cells in sub-G1 (M1), G1-phase (M2), S/G2/M-phase (M3) as well as polyploid cells with a DNA content >4n are given for 24 and 36 hours after doxorubicin treatment. c, mRNA expression of pro-apoptotic genes Bim, Puma, and Noxa 6 hours after γ-irradiation (2 Gray) in the presence (1 μg/ml) or absence of RANKL stimulation. Data are shown as fold change compared to control (+/−sem). n=3). *P<0.05; **P<0.005 (Student's t-test).
For measurement of cell cycle arrest and apoptosis primary mouse mammary epithelial cells and SKBR3 human breast cancer cells were seeded at a cell-density of 100000 cells/well in a 6-well plate and allowed to grow for 24 hours. Cells where then treated with doxorubicin (1 μM) or γ-irradiation (2 Gray) in the absence or presence of recombinant RANKL (1 μg/ml). Cell cycle arrest and numbers of dead cells were determined using propidium iodine staining. To determine in vivo mammary gland epithelial cell death, control and RANK^Δmam littermate females were γ-irradiated with a total dose of 5 Gray (Gy). Six hours later, mammary glands were isolated and immunostained for active Caspase 3 (Cell Signaling) indicative of apoptosis.

| Molecule | nuclear phosphorylated IκBα and CyclinD1 protein expression (NFκB pathway, CyclinD1; RANK^Δmam female) | CyclinD1 protein expression in mammary epithelial cells (NFκB pathway, CyclinD1; control females) | nuclear phosphorylated IκBα in mammary epithelial cells (NFκB pathway, CyclinD1; control females) | cell death after DNA damage ([1]; doxorubicin (1 μM)) | early cell cycle arrest after DNA damage ([1]; doxorubicin (1 μM)) | cell death after DNA damage ([1]; γ-irradiation (2 Gray)) | early cell cycle arrest after DNA damage ([1]; γ-irradiation (2 Gray)) |
| --- | --- | --- | --- | --- | --- | --- | --- |
| CC(=O)O[C@]1(C(C)=O)CC[C@H]2[C@@H]3C[C@H](C)C4=CC(=O)CC[C@]4(C)[C@H]3CC[C@@]21C [MPA, medroxyprogesterone acetate] | severely reduced | induction of CyclinD1 protein expression | nuclear accumulation of phosphorylated IκBα |  |  |  |  |
| B1 |  |  |  | marked protection from cell death | did not alter | marked protection from cell death | did not alter |
